Results as given in patent US20240209100A1 (DIAGONAL THERAPEUTICS, published 2024).

T1: IL-18 receptor (IL-18Rα/IL-18Rβ) overexpressed on HEK-Blue IL-18 cells (Homo sapiens (Human), UniProt Q13478 19-541; O95256 20-599)
T1 sequence 1: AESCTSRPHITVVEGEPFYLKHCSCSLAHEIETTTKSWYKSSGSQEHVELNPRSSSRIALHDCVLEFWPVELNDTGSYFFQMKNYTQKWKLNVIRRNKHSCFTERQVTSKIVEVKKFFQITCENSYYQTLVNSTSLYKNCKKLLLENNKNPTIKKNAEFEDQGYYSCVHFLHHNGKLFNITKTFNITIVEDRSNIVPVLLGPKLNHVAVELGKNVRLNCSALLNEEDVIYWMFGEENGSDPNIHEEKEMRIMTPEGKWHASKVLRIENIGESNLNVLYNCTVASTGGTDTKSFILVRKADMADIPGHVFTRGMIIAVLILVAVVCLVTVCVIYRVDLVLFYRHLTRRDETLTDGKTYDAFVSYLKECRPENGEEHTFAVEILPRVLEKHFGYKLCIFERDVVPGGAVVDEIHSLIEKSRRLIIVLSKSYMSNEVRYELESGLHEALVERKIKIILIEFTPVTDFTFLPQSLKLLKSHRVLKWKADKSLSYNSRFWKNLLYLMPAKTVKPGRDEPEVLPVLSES
T1 sequence 2: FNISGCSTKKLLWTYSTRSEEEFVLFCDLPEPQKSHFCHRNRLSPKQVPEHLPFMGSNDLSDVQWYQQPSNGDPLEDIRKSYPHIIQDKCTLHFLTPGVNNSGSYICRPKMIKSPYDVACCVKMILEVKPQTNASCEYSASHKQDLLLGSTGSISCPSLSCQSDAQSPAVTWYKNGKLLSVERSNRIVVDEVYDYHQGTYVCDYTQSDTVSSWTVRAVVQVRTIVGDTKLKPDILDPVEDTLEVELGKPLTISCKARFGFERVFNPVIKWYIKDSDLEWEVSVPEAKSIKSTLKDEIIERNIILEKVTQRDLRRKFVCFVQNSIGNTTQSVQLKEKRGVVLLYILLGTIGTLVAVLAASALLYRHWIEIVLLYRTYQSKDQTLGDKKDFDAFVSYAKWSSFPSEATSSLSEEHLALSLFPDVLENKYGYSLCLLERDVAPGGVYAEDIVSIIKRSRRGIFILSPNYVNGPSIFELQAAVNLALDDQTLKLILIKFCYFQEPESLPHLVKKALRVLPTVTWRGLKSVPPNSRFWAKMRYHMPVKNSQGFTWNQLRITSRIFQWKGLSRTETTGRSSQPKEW


biological target: T1, IL-18 receptor (IL-18Rα/IL-18Rβ) …; test: cell-based or functional assay

Row | HEK-Blue IL-18: Abs 405 [Abs] | HEK-Blue IL-18: Fold over Background [fold] | Binder
1 | 1.1 | 9.1 | DGL175 (bispecific antibody) heavy 1: QLQLVESGGGLVQAGGSLRLSCAASRSITFSHNVMGWYRQAPGKQRELVASIGSGGSTNYVDSVKGRATISRDNAKKTVYLQMNSLKPEDTAVYYCGVVVGVYRGSLGQGTQVTVSSGGGSQVQLQESGGGLVQAGGSLRLSCQASGSIATINGMRWWRQAPGKERELVATINSGGSSNYADSVKGRFTISRDNASHTVSLQMNSLKPEDTAVYYCNLYVYSQFPPFSVDDYWGQGARVTVSSDKTHTCPPCPAPEAAGGPSVFLFPPKPKDTLMISRTPEVTCVVVDVSHEDPEVKFNWYVDGVEVHNAKTKPREEQYNSTYRVVSVLTVLHQDWLNGKEYKCKVSNKALPAPIEKTISKAKGQPREPQVCTLPPSRDELTKNQVSLSCAVKGFYPSDIAVEWESNGQPENNYKTTPPVLDSDGSFFLVSKLTVDKSRWQQGNVFSCSVMHEALHNHYTQKSLSLSPG heavy 2: not shown
2 | 0.59 | 4.9 | DGL173 (bispecific antibody) heavy 1: QVQLVESGGGLVQAGGSLRLSCVASGTFFQIHVMGWYRQAPGKQRELVAFIINNGGTRYADSVKGRFTISRDYAKNTVYLQMNSLKPEDTAVYYCNTEGTYRGRYSTDNWGQGTQVTVSSGGGSQVQLVESGGGLVQAGGSLRLSCAASGRTFSKHAMGWFRQAPGKEREFVAAIDWSGGSTYYADSVKGRFTISRDNAKNTVYLQMDSLKPEDTAVYYCAADSYTDYAQLWLPELESEYDYWGQGTQVTVSSDKTHTCPPCPAPEAAGGPSVFLFPPKPKDTLMISRTPEVTCVVVDVSHEDPEVKFNWYVDGVEVHNAKTKPREEQYNSTYRVVSVLTVLHQDWLNGKEYKCKVSNKALPAPIEKTISKAKGQPREPQVCTLPPSRDELTKNQVSLSCAVKGFYPSDIAVEWESNGQPENNYKTTPPVLDSDGSFFLVSKLTVDKSRWQQGNVFSCSVMHEALHNHYTQKSLSLSPG heavy 2: not shown
3 | 1.14 | 9.5 | DGL174 (bispecific antibody) heavy 1: EVQLVESGGGLVQAGGSLRLSCAASGSISSRDTMGWYRQAPGKQREMVAVISSSGNTNYADSVLGRFTISRDNAKNTVDLQMNSLKPEDTAIYKCYAHRTYGVDYWGKGTLVTVSSGGGSQVQLVESGGGLVQAGGSLRLSCAASGRTFSSYTMGWFRQAPGKEREFVAAISWSAGRTYYADSVKGRFTISRDNAKNTVYLQMNSLKPEDTAVYFCAAEEAPDWAPIDCSGYGCLSLYDYWGQGTQVTVSSDKTHTCPPCPAPEAAGGPSVFLFPPKPKDTLMISRTPEVTCVVVDVSHEDPEVKFNWYVDGVEVHNAKTKPREEQYNSTYRVVSVLTVLHQDWLNGKEYKCKVSNKALPAPIEKTISKAKGQPREPQVCTLPPSRDELTKNQVSLSCAVKGFYPSDIAVEWESNGQPENNYKTTPPVLDSDGSFFLVSKLTVDKSRWQQGNVFSCSVMHEALHNHYTQKSLSLSPG heavy 2: not shown
